The values below come from paper PMC6842167 (Retrovirology, 2019).

The target in this experiment is T1, Recombinant human two-domain CD4 (Homo sapiens).
T1 construct: also called 2dCD4; N-terminal two domain fragment of human CD4
As to the kind of experiment: ELISA; decreasing concentrations of 2dCD4 immobilised directly on a 96 well plate; antibodies at 1 µg/ml; anti-human HRP secondary, absorbance at 450 nm. Conditions: both partners purified. In general terms: ELISA stands for enzyme-linked immunosorbent assay.

B1: ibalizumab (antibody, V domains shown)
VH: QVQLQQSGPEVVKPGASVKMSCKASGYTFTSYVIHWVRQKPGQGLDWIGYINPYNDGTDYDEKFKGKATLTSDTSTSTAYMELSSLRSEDTAVYYCAREKDNYATGAWFAYWGQGTLVTVSS
VL: DIVMTQSPDSLAVSLGERVTMNCKSSQSLLYSTNQKNYLAWYQQKPGQSPKLLIYWASTRESGVPDRFSGSGSGTDFTLTISSVQAEDVAVYYCQQYYSYRTFGGGTKLEIK
notes: also called iMab; parental iMab antibody; source: HEK293T, transiently transfected, purified (Protein-A, SEC); copies: + +
Take B1: the binding result is “binds”.
